Experimental data from the supplement of paper PMC10724198.
± gives the standard deviation of the averaged measurements.

How the values were obtained:
[1] = system: Saccharomyces cerevisiae; assay: protein stability index of tFT-peptide fusion (C-terminal peptide) (PSI (0-1 scale)); higher = more stable (slower turnover)
Experimental: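 MPS profiling in S. cerevisiae of the tFT-X12 degron library: putative degron peptides plus stable controls, 12 aa, fused to the C-terminus of a sfGFP-mCherry timer. Cells are FACS-sorted into 8 mCherry/sfGFP bins and deep-sequenced. PSI runs from 0 (unstable) to 1 (stable). Backgrounds are wild type, das1Δ and doa10Δ at 30 °C, and wild type, das1Δ, cdc34-1 and cdc53-1 at 37 °C; 2-3 technical replicates each.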

[2] = system: Saccharomyces cerevisiae; assay: as above; details: genetic background: wild type; temperature: 30 C
[3] = genetic background: cdc34-1, temperature: 37 C
[4] = genetic background: cdc53-1, temperature: 37 C
[5] = genetic background: das1 deletion, temperature: 30 C
[6] = genetic background: das1 deletion, temperature: 37 C
[7] = genetic background: doa10 deletion, temperature: 30 C
[8] = genetic background: wild type, temperature: 30 C
[9] = genetic background: wild type, temperature: 37 C
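Also: PSI is a weighted mean of sequencing reads over stability bins, variants kept only with over 10 reads, mCherry proximal and sfGFP distal, peptide attached via GGGS linker.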

Sequence | protein stability index [1, 3] | protein stability index [1, 4] | protein stability index [1, 5] | protein stability index [1, 6] | protein stability index [1, 7] | protein stability index [1, 8] | protein stability index [1, 9] | protein stability index [2]
VLYLQCITSAGH | 0.1691 ± 0.00061 | 0.203 ± 0.0061 | 0.273 ± 0.025 | 0.195 ± 0.021 | 0.31 ± 0.044 | 0.29 ± 0.037 | 0.178 ± 0.0088 | 0.246 ± 0.023
PPPPPPLPSPSS | 0.664 ± 0.038 | 0.742 ± 0.024 | 0.64 ± 0.021 | 0.754 ± 0.012 | 0.659 ± 0.015 | 0.68 ± 0.023 | 0.699 ± 0.019 | 0.35 ± 0.0078
RRLAVWCDFRSL | 0.684 ± 0.054 | 0.75155 ± 0.00053 | 0.663 ± 0.018 | 0.7472 ± 0.00055 | 0.416 ± 0.0061 | 0.454 ± 0.035 | 0.653 ± 0.0095 | 0.45 ± 0.012
YIRINNIYWKKS | 0.58 ± 0.016 | 0.755 ± 0.024 | 0.669 ± 0.023 | 0.722 ± 0.012 | 0.182 ± 0.0071 | 0.227 ± 0.034 | 0.536 ± 0.032 | 0.399 ± 0.029
AFFLLVSLLVSP | 0.0637 ± 0.025 | 0.0989 ± 0.021 | 0.122 ± 0.046 | 0.219 ± 0.0041 | 0.0944 ± 0.0098 | 0.132 ± 0.041 | 0.186 ± 0.0021 | 0.204 ± 0.097
TVRVVMLRLLFT | 0.452 ± 0.027 | 0.52 ± 0.025 | 0.346 ± 0.035 | 0.528 ± 0.0076 | 0.309 ± 0.02 | 0.33 ± 0.024 | 0.493 ± 0.018 | 0.418 ± 0.021
FFLFILYFGSCF | 0.358 ± 0.025 | 0.422 ± 0.0051 | 0.349 ± 0.034 | 0.481 ± 0.0073 | 0.362 ± 0.017 | 0.329 ± 0.012 | 0.448 ± 0.017 | 0.399 ± 0.029
VQFISLVCLFRF | 0.339 ± 0.048 | 0.361 ± 0.0089 | 0.341 ± 0.045 | 0.475 ± 0.036 | 0.346 ± 0.033 | 0.303 ± 0.018 | 0.448 ± 0.039 | 0.414 ± 0.013
VMRMVWVLGVMC | 0.281 ± 0.02 | 0.325 ± 0.047 | 0.251 ± 0.037 | 0.405 ± 0.0087 | 0.178 ± 0.0075 | 0.203 ± 0.028 | 0.35 ± 0.0091 | 0.299 ± 0.011
SYLPSHVYIFLL | 0.275 ± 0.0049 | 0.309 ± 0.02 | 0.273 ± 0.032 | 0.4417 ± 0.0022 | 0.097 ± 0.0087 | 0.0758 ± 0.019 | 0.129 ± 0.034 | 0.128 ± 0.019
YILIKEVLYAVC | 0.169 ± 0.0061 | 0.171 ± 0.0086 | 0.182 ± 0.028 | 0.281 ± 0.0066 | 0.128 ± 0.023 | 0.17 ± 0.024 | 0.236 ± 0.0088 | 0.274 ± 0.018
RGYSAIWGCKMN | 0.619 ± 0.097 | 0.742 ± 0.045 | 0.654 ± 0.0072 | 0.74 ± 0.011 | 0.184 ± 0.021 | 0.228 ± 0.018 | 0.529 ± 0.077 | 0.3812 ± 0.0021
LLHQSVHSHIPP | 0.637 ± 0.0097 | 0.72 ± 0.013 | 0.638 ± 0.022 | 0.733 ± 0.021 | 0.641 ± 0.018 | 0.641 ± 0.024 | 0.6911 ± 0.0067 | 0.534 ± 0.052
FVVWKDVLVMVR | 0.132 ± 0.03 | 0.1451 ± 0.00045 | 0.2 ± 0.032 | 0.286 ± 0.0095 | 0.158 ± 0.0054 | 0.192 ± 0.034 | 0.257 ± 0.0093 | 0.298 ± 0.029
FLVLFYCTFWVR | 0.162 ± 0.0078 | 0.242 ± 0.032 | 0.222 ± 0.019 | 0.3245 ± 0.0025 | 0.197 ± 0.006 | 0.211 ± 0.042 | 0.349 ± 0.071 | 0.329 ± 0.089
RLRWLSPMTHVG | 0.634 ± 0.013 | 0.7337 ± 0.0061 | 0.666 ± 0.025 | 0.726 ± 0.024 | 0.263 ± 0.0086 | 0.286 ± 0.016 | 0.5802 ± 0.0019 | 0.463 ± 0.012
SFTVFVVLLFPP | 0.311 ± 0.021 | 0.437 ± 0.05 | 0.284 ± 0.032 | 0.476 ± 0.024 | 0.288 ± 0.013 | 0.304 ± 0.0095 | 0.4293 ± 0.00063 | 0.323 ± 0.062
VFFLRVHFWSFF | 0.377 ± 0.01 | 0.487 ± 0.011 | 0.368 ± 0.029 | 0.53367 ± 0.00033 | 0.138 ± 0.015 | 0.168 ± 0.0092 | 0.246 ± 0.02 | 0.2826 ± 0.0026
FQPLELFFVCVF | 0.0866 ± 0.04 | 0.154 ± 0.025 | 0.199 ± 0.02 | 0.235 ± 0.014 | 0.163 ± 0.014 | 0.181 ± 0.023 | 0.212 ± 0.016 | 0.305 ± 0.014
KALSSSYFGTRL | 0.69 ± 0.025 | 0.745 ± 0.015 | 0.648 ± 0.014 | 0.743 ± 0.0082 | 0.649 ± 0.019 | 0.6755 ± 0.0058 | 0.7128 ± 0.007 | 0.735 ± 0.062

Sequence | protein stability index [1, 3] | protein stability index [1, 4] | protein stability index [1, 5] | protein stability index [1, 6] | protein stability index [1, 7] | protein stability index [1, 8] | protein stability index [1, 9] | protein stability index [2]
SVFRFLFLALLV | 0.2 ± 0.052 | 0.162 ± 0.018 | 0.282 ± 0.029 | 0.352 ± 0.023 | 0.173 ± 0.0056 | 0.145 ± 0.0078 | 0.18 ± 0.016 | 0.191 ± 0.016
QIDYSVYIFALG | 0.4309 ± 0.00032 | 0.493 ± 0.036 | 0.279 ± 0.03 | 0.4672 ± 0.0007 | 0.261 ± 0.0014 | 0.302 ± 0.023 | 0.454 ± 0.0065 | 0.371 ± 0.026
LFWCCVGLSVWR | 0.367 ± 0.063 | 0.474 ± 0.026 | 0.318 ± 0.022 | 0.5026 ± 0.0031 | 0.278 ± 0.0092 | 0.31 ± 0.016 | 0.494 ± 0.023 | 0.43 ± 0.011
VFLVFSVWVVYR | 0.2 ± 0.0081 | 0.304 ± 0.00039 | 0.233 ± 0.024 | 0.357 ± 0.018 | 0.2068 ± 0.00094 | 0.218 ± 0.026 | 0.343 ± 0.053 | 0.318 ± 0.027
PLHPSSTPATPF | 0.69 ± 0.03 | 0.741 ± 0.0032 | 0.667 ± 0.023 | 0.745 ± 0.023 | 0.677 ± 0.026 | 0.6834 ± 0.0044 | 0.722 ± 0.02 | 0.732 ± 0.034
FASALAPLSAVA | 0.48 ± 0.014 | 0.494 ± 0.022 | 0.366 ± 0.044 | 0.529 ± 0.001 | 0.307 ± 0.0091 | 0.358 ± 0.036 | 0.509 ± 0.0079 | 0.4002 ± 0.0029
VSFRISAIFVCV | 0.232 ± 0.034 | 0.293 ± 0.02 | 0.216 ± 0.033 | 0.367 ± 0.0039 | 0.183 ± 0.011 | 0.202 ± 0.028 | 0.322 ± 0.045 | 0.343 ± 0.044
WAAVGIQLRLLF | 0.354 ± 0.011 | 0.34 ± 0.015 | 0.317 ± 0.034 | 0.47357 ± 9.6e-05 | 0.233 ± 0.026 | 0.199 ± 0.018 | 0.347 ± 0.022 | 0.3323 ± 0.00057
CGLLWFYSFFLF | 0.502 ± 0.019 | 0.491 ± 0.013 | 0.391 ± 0.04 | 0.5187 ± 0.0046 | 0.375 ± 0.012 | 0.316 ± 0.013 | 0.465 ± 0.018 | 0.38 ± 0.021
FCFCLVLRVFLG | 0.118 ± 0.0026 | 0.171 ± 0.011 | 0.154 ± 0.03 | 0.272 ± 0.0093 | 0.172 ± 0.011 | 0.162 ± 0.024 | 0.222 ± 0.014 | 0.253 ± 0.034
FFALYGHILGLF | 0.702 ± 0.02 | 0.7821 ± 0.0041 | 0.611 ± 0.023 | 0.7525 ± 0.0025 | 0.472 ± 0.028 | 0.491 ± 0.016 | 0.685 ± 0.052 | 0.4957 ± 0.0022
CHFLLPFLFTCA | 0.225 ± 0.027 | 0.28 ± 0.0099 | 0.244 ± 0.043 | 0.3685 ± 0.00097 | 0.1949 ± 0.0015 | 0.221 ± 0.024 | 0.309 ± 0.0071 | 0.332 ± 0.006
RPSHTSVYRLLH | 0.553 ± 0.061 | 0.677 ± 0.054 | 0.655 ± 0.045 | 0.706 ± 0.019 | 0.114 ± 0.019 | 0.148 ± 0.0086 | 0.337 ± 0.17 | 0.2545 ± 0.0022
VVVVWVVVEIVR | 0.147 ± 0.033 | 0.275 ± 0.11 | 0.164 ± 0.022 | 0.279 ± 0.033 | 0.121 ± 0.018 | 0.133 ± 0.024 | 0.178 ± 0.012 | 0.169 ± 0.036
LLLPVFRFFFVN | 0.468 ± 0.032 | 0.632 ± 0.065 | 0.554 ± 0.026 | 0.672 ± 0.021 | 0.0849 ± 0.023 | 0.109 ± 0.007 | 0.143 ± 0.0049 | 0.203 ± 0.04
WRVVVSCALHVC | 0.123 ± 0.014 | 0.167 ± 0.0054 | 0.169 ± 0.017 | 0.274 ± 0.0034 | 0.0395 ± 0.017 | 0.0423 ± 0.009 | 0.0863 ± 0.026 | 0.085736 ± 1.1e-05
GGVFYVFFVFVG | 0.19 ± 0.016 | 0.39 ± 0.016 | 0.246 ± 0.024 | 0.425 ± 0.013 | 0.128 ± 0.0049 | 0.153 ± 0.023 | 0.258 ± 0.013 | 0.195 ± 0.0076
VQWPLLVVGCMG | 0.271 ± 0.016 | 0.312 ± 0.04 | 0.263 ± 0.029 | 0.401 ± 0.0053 | 0.211 ± 0.015 | 0.251 ± 0.036 | 0.361 ± 0.011 | 0.399 ± 0.028
RALSLPPLLLVL | 0.386 ± 0.013 | 0.443 ± 0.038 | 0.319 ± 0.013 | 0.48 ± 0.011 | 0.338 ± 0.029 | 0.326 ± 0.029 | 0.4351 ± 0.0017 | 0.423 ± 0.023
